# Assay results published in patent US20250115678A1 (AstraZeneca / MedImmune, published 2025).
# Where a chain is given by its changes, count along the chain named.
# B1: anti-GPC3 Fab (Fab, V domains shown)
# VH: QVQLVQSGAEVKKPGASVKVSCKASGYTFTDYEMHWVRQAPGQGLEWMGALDPKTGDTAYSQKFKGRVTLTADKSTSTAYMELSSLTSEDTAVYYCTRFYSYTYWGQGTLVTVSS
# VL: DVVMTQSPLSLPVTPGEPASISCRSSQSLVHSNRNTYLHWYLQKPGQSPQLLIYKVSNRFSGVPDRFSGSGSGTDFTLKISRVEAEDVGVYYCSQNTHVPPTFGQGTKLEIK
# B2: anti-CD8 VHH (VHH)
# VHH: EVQLLESGGGLVQPGGSLRLSCAASGFTFDDYAIGWFRQAPGKEREGVSCIRVSDGSTYYADSVKGRFTISRDNSKNTLYLQMNSLRAEDTAVYYCAAGSLYTCVQSIVWPARPYYDMDYWGQGTLV
# notes: also called CD8 VHHb
# B3: TPP-46959 (other)
# light: not shown
# heavy 1: EVQLVQSGAEVKKPGASVKVSCKASGYKFSSYWIEWVKQAPGQGLEWIGEILPGSDTTNYAQKFQDRVTFTSDTSISTAYMELSRLRSDDTAVYYCARDRGNYRAWFGYWGQGTLVTVSSASTKGPSVFPLAPSSKSTSGGTAALGCLVKDYFPEPVTVSWNSGALTSGVHTFPAVLQSSGLYSLSSVVTVPSSSLGTQTYICNVNHKPSNTKVDKRVEPKSCDKTGGSEVQLVESGGGLVQPGGSLRLSCVASGDVHKINFLGWYRQAPGKEREKVAHISIGDQTDYADSAKGRFTISRDESKNMVYLQMNSLKPEDTAVYFCRAFSRIYPYDYWGQGTLVTVSSGGGGSTHTCPPCPAPPVAGPSVFLFPPKPKDTLMISRTPEVTCVVVDVKHEDPEVKFNWYVDGVEVHNAKTKPREEQYNSTYRVVSVLTVLHQDWLNGKEYKCKVSNKALPAPIEKTISKAKGQPREPQVCTLPPSREEMTKNQVSLSCAVKGFYPSDIAVEWESNGQPENNYKTTPPVLDSDGSFFLVSKLTVDKSRWQQGNVFSCSVMHEALHNRFTQKSLSLSPGK
# heavy 2: EVQLVQSGAEVKKPGASVKVSCKASGYKFSSYWIEWVKQAPGQGLEWIGEILPGSDTTNYAQKFQDRVTFTSDTSISTAYMELSRLRSDDTAVYYCARDRGNYRAWFGYWGQGTLVTVSSASTKGPSVFPLAPSSKSTSGGTAALGCLVKDYFPEPVTVSWNSGALTSGVHTFPAVLQSSGLYSLSSVVTVPSSSLGTQTYICNVNHKPSNTKVDKRVEPKSCDKTGGSEVQLLESGGGLVQPGGSLRLSCAASGFTFTDYAIGWFRQAPGKEREGVSCIRVSDGSTYYADSVKGRFTISRDSSKNTLYLQMNSLRAEDTAVYYCAAGSLYTCVQSIVWPARPYYDMDYWGQGTLVTVSSGGGGSTHTCPPCPAPPVAGPSVFLFPPKPKDTLMISRTPEVTCVVVDVKHEDPEVKFNWYVDGVEVHNAKTKPREEQYNSTYRVVSVLTVLHQDWLNGKEYKCKVSNKALPAPIEKTISKAKGQPREPQVYTLPPCREEMTKNQVSLWCLVKGFYPSDIAVEWESNGQPENNYKTTPPVLDSDGSFFLYSKLTVDKSRWQQGNVFSCSVMHEALHNHYTQKSLSLSPGK
# notes: T-cell engager in the CD8/TCR format: 2x LRRC15 Fab, 1x TCR VHH, 1x CD8 VHH; Residue 55 of L-CDR2 is E
# B4: TPP-46957 (other)
# light: not shown
# heavy 1: B3 heavy 1 with K63Q
# heavy 2: B3 heavy 2 with K63Q
# notes: T-cell engager in the CD8/TCR format: 2x LRRC15 Fab, 1x TCR VHH, 1x CD8 VHH
# B5: TPP-46958 (other)
# light: not shown
# heavy 1: B3 heavy 1 with T57A
# heavy 2: B3 heavy 2 with T57A
# notes: as for B4
# B6: TPP-46960 (other)
# light: not shown
# heavy 1: B3 heavy 1
# heavy 2: B3 heavy 2
# notes: T-cell engager in the CD8/TCR format: 2x LRRC15 Fab, 1x TCR VHH, 1x CD8 VHH; Residue 55 of L-CDR2 is N
# B7: TPP-46956 (other)
# light: not shown
# heavy 1: B3 heavy 1 with K63N
# heavy 2: B3 heavy 2 with K63N
# notes: as for B4
# How the values were obtained:
# [1] = molecular target: T1, soluble recombinant human GPC3 protein (human, UniProt P51654 25-559, biotinylated in the biolayer interferometry assay); assay: biolayer interferometry (Octet), biotinylated antigen on streptavidin biosensors
# T1 construct: also called GPC3 human
# T1 sequence (P51654 25-559 limits assumed): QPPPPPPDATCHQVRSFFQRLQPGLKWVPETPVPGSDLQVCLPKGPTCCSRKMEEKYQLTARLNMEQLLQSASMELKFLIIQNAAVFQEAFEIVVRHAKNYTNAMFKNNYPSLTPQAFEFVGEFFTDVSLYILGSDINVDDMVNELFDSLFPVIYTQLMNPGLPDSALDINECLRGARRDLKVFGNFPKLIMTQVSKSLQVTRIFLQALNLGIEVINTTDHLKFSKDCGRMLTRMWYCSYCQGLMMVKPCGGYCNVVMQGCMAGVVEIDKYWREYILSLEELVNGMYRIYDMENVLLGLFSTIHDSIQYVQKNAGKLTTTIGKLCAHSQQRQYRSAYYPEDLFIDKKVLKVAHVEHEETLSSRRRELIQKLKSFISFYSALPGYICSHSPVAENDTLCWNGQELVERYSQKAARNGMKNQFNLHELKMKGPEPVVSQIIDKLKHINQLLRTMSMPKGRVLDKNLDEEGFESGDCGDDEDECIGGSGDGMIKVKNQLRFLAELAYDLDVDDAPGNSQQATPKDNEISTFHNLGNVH
# Method: (§1) Binding kinetics were measured by biolayer interferometry on an OCTET 384 instrument. Streptavidin (SA) biosensors were loaded with biotinylated protein antigens (ACRO Biosystems, Newark, DE) in PBS pH 7.2, 1 mg/mL BSA, 0.05% (v/v) TWEEN (Kinetic buffer). The loaded biosensors were washed in the same buffer before carrying out association and dissociation measurements with various antibodies for the indicated times. Kinetic parameters (Kₒₙ and Koff) and affinities (KD) were calculated from a non-linear fit of the data using the OCTET software v.12.2.1.24.
# [2] = molecular target: T2, soluble recombinant human CD8a protein (human, UniProt P01732 22-182, biotinylated); assay: biolayer interferometry (Octet RED384), biotinylated antigen on streptavidin biosensors
# T2 construct: also called CD8α Human
# T2 sequence (P01732 22-182 limits assumed): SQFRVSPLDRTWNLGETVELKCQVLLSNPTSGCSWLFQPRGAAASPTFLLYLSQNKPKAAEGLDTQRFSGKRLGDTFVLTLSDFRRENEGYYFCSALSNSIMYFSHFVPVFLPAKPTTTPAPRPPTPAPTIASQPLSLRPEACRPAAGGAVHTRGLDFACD
# Method: as §1
# [3] = molecular target: T3, human EphB6 on transiently transfected Ad293 cells (human, UniProt O15197 32-1021); assay: Flow cytometry on Ad293 cells transiently transfected with human EphB6 (off-target binding)
# T3 construct: whole, on cells; also called EphB6-expressing cells
# T3 sequence (looked up): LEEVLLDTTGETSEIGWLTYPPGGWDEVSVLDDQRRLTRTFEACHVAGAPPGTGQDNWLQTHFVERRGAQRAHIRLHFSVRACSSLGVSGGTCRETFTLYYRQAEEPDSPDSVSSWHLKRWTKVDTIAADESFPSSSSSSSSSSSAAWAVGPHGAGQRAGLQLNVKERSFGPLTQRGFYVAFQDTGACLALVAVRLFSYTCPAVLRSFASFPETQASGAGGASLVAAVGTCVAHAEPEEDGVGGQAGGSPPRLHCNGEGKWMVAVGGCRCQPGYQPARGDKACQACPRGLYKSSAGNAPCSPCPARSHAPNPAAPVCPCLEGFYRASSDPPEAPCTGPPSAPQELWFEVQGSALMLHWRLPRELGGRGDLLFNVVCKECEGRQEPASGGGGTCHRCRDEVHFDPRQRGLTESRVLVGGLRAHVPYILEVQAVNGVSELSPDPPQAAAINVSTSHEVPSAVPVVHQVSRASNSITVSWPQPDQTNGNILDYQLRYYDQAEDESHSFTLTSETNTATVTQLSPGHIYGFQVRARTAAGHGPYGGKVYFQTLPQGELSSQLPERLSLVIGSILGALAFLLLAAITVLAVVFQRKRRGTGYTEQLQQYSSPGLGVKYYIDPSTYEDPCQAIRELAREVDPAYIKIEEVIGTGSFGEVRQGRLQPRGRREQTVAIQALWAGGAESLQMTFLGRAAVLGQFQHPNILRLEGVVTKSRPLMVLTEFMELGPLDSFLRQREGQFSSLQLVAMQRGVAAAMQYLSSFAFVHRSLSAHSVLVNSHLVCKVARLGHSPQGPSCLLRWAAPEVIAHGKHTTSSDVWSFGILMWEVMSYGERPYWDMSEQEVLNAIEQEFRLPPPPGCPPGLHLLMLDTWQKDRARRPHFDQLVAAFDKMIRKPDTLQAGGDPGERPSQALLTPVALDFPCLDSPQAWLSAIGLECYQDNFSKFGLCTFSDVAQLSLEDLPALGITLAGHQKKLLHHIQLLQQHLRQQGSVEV
# From the text: Ad293 cells were transiently transfected with a plasmid expressing human EphB6.
# [4] = molecular target: T4, human LRRC15 recombinant extracellular domain protein (human, UniProt Q8TF66 22-538); assay: SPR single-cycle kinetics (Biacore 8K+), TCE captured on Protein G chip, LRRC15 ECD as analyte, 1:1 fit, average of 3 or 4 replicates
# T4 construct: extracellular domain; also called LRRC15 human
# T4 sequence (looked up): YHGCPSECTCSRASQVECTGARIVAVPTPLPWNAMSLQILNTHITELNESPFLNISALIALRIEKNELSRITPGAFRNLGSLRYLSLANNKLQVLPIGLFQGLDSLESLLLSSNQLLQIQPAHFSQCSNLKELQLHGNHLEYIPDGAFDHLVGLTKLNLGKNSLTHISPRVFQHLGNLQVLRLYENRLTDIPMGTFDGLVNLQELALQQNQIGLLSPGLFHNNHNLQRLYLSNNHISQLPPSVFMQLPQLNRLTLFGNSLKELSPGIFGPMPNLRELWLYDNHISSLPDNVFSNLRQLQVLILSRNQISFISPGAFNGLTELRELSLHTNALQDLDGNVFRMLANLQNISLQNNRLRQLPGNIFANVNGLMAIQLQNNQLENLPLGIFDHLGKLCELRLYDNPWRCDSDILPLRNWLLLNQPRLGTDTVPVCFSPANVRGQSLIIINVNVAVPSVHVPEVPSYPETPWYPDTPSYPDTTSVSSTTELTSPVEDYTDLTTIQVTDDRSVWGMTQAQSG
# From the text: (§2) The fully corrected binding data were globally fitted to a 1:1 binding model to determine the KD using the Biacore™ Insight Evaluation Software (CYTIVA). Coloured sensorgram trace represents the raw data and black line the global 1:1 fit to that data. Values for kinetics parameters is shown in Table 8 are averages for 3 or 4 replicate sets of measurements.
# [5] = molecular target: T5, cyno LRRC15 recombinant extracellular domain protein (cyno, UniProt G7NYR2 22-538); assay: as above
# T5 construct: extracellular domain; also called LRRC15 cyno
# From the text: as §2
Binder,binding result [3],Kd [4],Kd [5],other results
B1,–,–,–,Kd [1]: 1.87 nM; koff [1]: 0.000422 s⁻¹; kon [1]: 226000 M⁻¹ s⁻¹
B2,–,–,–,Kd [2]: 55.3 nM; koff [2]: 0.0286 s⁻¹; kon [2]: 517000 M⁻¹ s⁻¹
B3,binds,1.34 nM,3 nM,–
B4,binds,2.27 nM,4.55 nM,–
B5,binds,3.1 nM,6.4 nM,–
B6,binds,0.98 nM,2.24 nM,–
B7,binds,2.24 nM,4.8 nM,–
